The record followed here is patent US20170101466A1 (published 2017).

What is called Kd is the constant that tells how readily two partners part at equilibrium. Read a high Kd as a looser complex. Usually koff stands for a measure of how fast the partners let go of each other. High values mean a short-lived complex, low ones a long-lived complex. As a reminder, the kon is the second-order rate constant of association. Lower therefore signals slow association. As a reminder, the IC50 is the concentration at which inhibition is half-maximal.

Substitutions are numbered along the chain they refer to. Names may count otherwise.

B1: mouse APRIL (ligand, UniProt Q9D777 96-241, looked up)
chain: AVLTQKHKKKHSVLHLVPVNITSKADSDVTEVMWQPVLRRGRGLEAQGDIVRVWDTGIYLLYSQVLFHDVTFTMGQVVSREGQGRRETLFRCIRSMPSDPDRAYNSCYSAGVFHLHQGDIITVKIPRANAKLSLSPHGTFLGFVKL
notes: Bought recombinant protein; also called mAPRIL
B2: mouse TACI (R&D Systems receptor chimera) (receptor, UniProt Q9ET35 2-129, looked up, not shown: a dimerising Fc or GST)
chain: AMAFCPKDQYWDSSRKSCVSCALTCSQRSQRTCTDFCKFINCRKEQGRYYDHLLGACVSCDSTCTQHPQQCAHFCEKRPRSQANLQPELGRPQAGEVEVRSDNSGRHQGSEHGPGLRLSSDQLTLYCT
notes: also called mTACI; TACI rec Mouse
B3: tabalumab (antibody, V domains shown)
VH: QVQLQQWGAGLLKPSETLSLTCAVYGGSFSGYYWSWIRQPPGKGLEWIGEINHSGSTNYNPSLKSRVTISVDTSKNQFSLKLSSVTAADTAVYYCARGYYDILTGYYYYFDYWGQGTLVTVSS
VL: EIVLTQSPATLSLSPGERATLSCRASQSVSRYLAWYQQKPGQAPRLLIYDASNRATGIPARFSGSGSGTDSTLTISSLEPEDFAVYYCQQRSNWPRTFGQGTKVEIKR
B4: 5B7 IgG1 F243A/V264A double mutein expressed in Pichia pastoris (antibody, V domains shown)
VH: QVQLVQSGAEVKKPGASVKVSCKASGGTFSSYAISWVRQAPGQGLEWMGGIIPIFGTANYAQKFQGRVTITADKSTSTAYMELSSLRSEDTAVYYCARVDYDILTGYYMGYFDYWGQGTLVTVSS
VL: B3 VL with E1D, L4M, R31S, S71F, R96I, K103R, V104L
notes: IgG1 F243A/V264A (EU) double mutein, alpha-2,6-sialylated, from glycoengineered Pichia pastoris; also called 5B7-DM; 5B7-DM Pichia
B5: 5B7 IgG expressed in HEK293 cells (antibody, V domains shown)
VH: B4 VH
VL: B3 VL with E1D, L4M, R31S, S71F, R96I, K103R, V104L
notes: also called 5B7 (293); 5B7-HEK293
B6: 1F4 IgG expressed in HEK293 cells (antibody, V domains shown)
VH: QVTLKESGPTLVKPTQTLTLTCTFSGFSLSTSRVGVGWIRQPPGKALEWLARIDWDDDKYYSTSLKTRLTISKDTSKNQVVLTMTNMDPVDTATYYCARTHTYYDILTGYSYHVYFDYWGQGTLVTVSS
VL: QSALTQPPSASGSRGQSVSISCSGSRSDIGYYNYVSWYQQHPGKAPKLIIFDVNKRPSGVPDRFSGSKSGNTASLTVSGLQPEDEADYYCASYGGRNNLLFGGGTQLTVLG
notes: IgG from HEK293-FreeStyle cells; also called IF4

For test [1], the target named is T1, human TACI (R&D Systems receptor chimera) (human, UniProt O14836 2-166).
T1 construct: also called hTACI; TACI rec Human
T1 sequence (looked up): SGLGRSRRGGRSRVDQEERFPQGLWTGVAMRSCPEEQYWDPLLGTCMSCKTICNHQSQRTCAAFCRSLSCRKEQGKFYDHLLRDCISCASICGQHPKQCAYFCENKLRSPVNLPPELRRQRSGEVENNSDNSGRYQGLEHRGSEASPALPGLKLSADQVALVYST
Briefly: Biacore, binder captured, APRIL injected at 50 nM. How it is done:
(§1) Recombinant protein NG (Thermo Scientific, Cat #21186) was diluted to 100 μg/ml in 10 mM Sodium Acetate pH 4.0 and then immobilized on the surface of a pre-activated Series S CM4 Biacore chip (GE, Cat #BR-1005-34) using amine coupling. […] Binding response was measured as the difference in total RU increase during 300 second APRIL injection of each individual flow cell and the reference flow cell (e.g., Flow cell 2-1).
(In SPR one partner is held on a chip, and binding of the other changes the refractive index at the surface.)

Test [2] addresses B1. Description: Biacore, binder captured, APRIL injected at 50 nM. How it is done: as §1
Test [3] deals with T2, human APRIL (human, UniProt O75888 105-250, limits assumed).
T2 construct: Bought recombinant protein; also called hAPRIL
T2 sequence (looked up): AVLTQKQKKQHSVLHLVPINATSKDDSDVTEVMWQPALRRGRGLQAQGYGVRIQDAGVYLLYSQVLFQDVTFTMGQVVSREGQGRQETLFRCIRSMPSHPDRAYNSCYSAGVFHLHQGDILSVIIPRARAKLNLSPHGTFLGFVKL
Briefly: Biacore, binder captured, APRIL injected at 50 nM. The procedure:
as §1

The target of test [4] is T3, soluble mouse BLyS (mouse, UniProt Q9WU72 127-309).
T3 construct: europium-labelled in DELFIA; also called mBLyS; mouse BAFF (BLyS)
Description: Biacore T100, binder captured by anti-human Fc, BLyS injected, 1:1 model. The procedure:
(§2) A Series S CM5 Chip (GE Healthcare) was amine coupled with an anti-human Fc capturing antibody (GE Healthcare Human Fc Kit) to >10,000 RUs. Sample antibodies were diluted in 1×HBS-EP+ running buffer to 0.15 ug/mL and injected for 45 seconds at 10 uL/min. […] Biacore Evaluation software was used to fit the data to a 1:1 Binding Model.

Test [5] addresses T4, soluble human BLyS (human, UniProt Q9Y275 134-285).
T4 construct: also called hBLyS; human BAFF (BLyS)
Described as above. How it is done: as §2

Test [6] has as its target T4, soluble human BLyS. Briefly: DELFIA competition, Eu-hBLyS binding to coated BR3. How it is done:
(§3) After 5× washing with 200 ul/well of DELFIA 1× wash solution (PE, Cat #4010-0010), plates were blocked with 3% BSA purified from trace heavy metal amounts (PE, Cat #CR84-100) for 3 hours with shaking at room temperature. Plates were washed again five times at 200 μl/well with DELFIA wash solution.
(§4) The final 3 wells across the plate served as controls (2 wells contained 2,000 pM mAbs for negative and background controls while the third contained no mAbs for positive control). […] After 18-24 hrs at 4° C., plates were read on PE EnVision plate reader with laser excitation, LANCE/DELFIA top mirror, and emission filter Eu-615 with a delay of 400 μs. Data were fit to four parameter (variable slope) inhibition dose response curve using GraphPad PRISM 5.0 software.

Test [7] deals with T4, soluble human BLyS. Description: cell-based or functional assay.
The target of test [8] is T3, soluble mouse BLyS. Briefly: DELFIA competition, Eu-mBLyS binding to coated BR3. How it is done:
as §3, §4

Test [9] deals with T4, soluble human BLyS. Briefly: DELFIA competition, Eu-hBLyS binding to coated TACI. The procedure: as §3, §4
Test [10] addresses T4, soluble human BLyS. Briefly: DELFIA competition, Eu-hBLyS binding to coated BCMA. The procedure: as §3, §4
Test [11] addresses B1. Briefly: Biacore, antibody captured, APRIL injected. The procedure: as §1
For test [12], the target named is T2, human APRIL. Description: Biacore, antibody captured, APRIL injected. The procedure: as §1
Test [13] has as its target T3, soluble mouse BLyS. Briefly: Biacore, antibody captured on chip, BLyS injected, 1:1 model, 25 C. The procedure:
(§5) Recombinant protein NG (Thermo Scientific, Cat #21186) was diluted to 100 μg/ml in 10 mM sodium acetate pH 4.0 and then immobilized on the surface of a pre-activated Series S CM5 Biacore chip (GE, Cat #BR-1005-34) using amine coupling. […] After the dissociation period, the chip was regenerated back to baseline by injecting 10 mM glycine pH 1.5 for 120 seconds over the four flow cells. […] The entire data set was fit to a 1:1 interaction model to give kₒₙ, koff, and Kd values. The assay was run at 25° C. in 1× biacore running buffer HBS-EP+ (GE, Cat #BR-1006-69).

The target of test [14] is T4, soluble human BLyS. Described as above. The procedure: as §5
Test [15] has as its target T3, soluble mouse BLyS. Description: cell-based or functional assay.
Test [16] deals with T3, soluble mouse BLyS. Description: DELFIA competition, Eu-mBLyS binding to coated TACI. How it is done: as §3, §4
The target of test [17] is T3, soluble mouse BLyS. Description: DELFIA competition, Eu-mBLyS binding to coated BCMA. The procedure:
as §3, §4

For the next test, the target named is T5, soluble cynomolgus BLyS (cynomolgus, UniProt A0A2K5V2X4 134-285).
T5 construct: Soluble form; also called cyBLyS; Soluble cyBLyS
Description: ELISA, soluble cyBLyS. On the technique in general: In an ELISA, binding on a coated surface is turned into a signal by an enzyme label.

For test [18], the target named is T4, soluble human BLyS. Description: blocking of biotinylated soluble hBLyS binding to immobilized mBR3.
Test [19] concerns the target T3, soluble mouse BLyS. Description: Biacore.
For test [20], the target named is T4, soluble human BLyS. Briefly: Biacore.
In test [21] the target is T4, soluble human BLyS. Description: ELISA, soluble hBLyS.
In test [22] the target is T3, soluble mouse BLyS. Description: ELISA, soluble mBLyS.
Test [23] concerns the target T4, soluble human BLyS. Description: ELISA, soluble hBLyS; soluble hBLyS ELISA.

For B1, in test [1], the binding result was “binds”.

On to B2, for which the binding result with mouse APRIL [2] is recorded as “binds”. Moreover, the binding result with human APRIL [3] is listed as “binds”. Further, in the test with soluble mouse BLyS [4], the Kd came out at 0.177 nM, the koff worked out at 0.000121 s⁻¹ and the kon was found to be 682000 M⁻¹ s⁻¹. In the test with soluble human BLyS [5], the affinity, expressed as Kd, was 0.602 nM; the koff is 0.000239 s⁻¹; the kon is 397000 M⁻¹ s⁻¹.

Turning to B3, the IC50 was 0.0899 nM with soluble human BLyS [6] and more than 2 nM with soluble mouse BLyS [8]. In addition, in the test with soluble human BLyS [7], the “IC50 hBLyS stimulated, mouse splenic B-cell proliferation” value (from here on “IC50 hBLyS stimulated”) worked out at 4 ng/mL.

Turning to B4, the IC50 is 0.0377 nM with soluble human BLyS [6]; 0.00051 nM with soluble human BLyS [9]; 0.0016 nM with soluble human BLyS [10]; less than 0.0003 nM with soluble mouse BLyS [16]; less than 0.0003 nM with soluble mouse BLyS [17]; 0.094 nM with soluble mouse BLyS [8]. For the same molecule, the binding result with mouse APRIL [11] and with human APRIL [12] was “no binding (tested: 50 nM)” each time. The Kd is 0.065 nM with soluble mouse BLyS [13], 0.179 nM with soluble human BLyS [14], 0.037 nM with soluble mouse BLyS [4] and 0.068 nM with soluble human BLyS [5]. In addition, the koff with soluble mouse BLyS [13] is 4e-05 s⁻¹; in the test with soluble human BLyS [14], 3.5e-05 s⁻¹; in the test with soluble mouse BLyS [4], 0.000102 s⁻¹; with soluble human BLyS [5], 4.6e-05 s⁻¹. Also, the kon with soluble mouse BLyS [13] was 620000 M⁻¹ s⁻¹; with soluble human BLyS [14], 190000 M⁻¹ s⁻¹; in the test with soluble mouse BLyS [4], 2.73e+06 M⁻¹ s⁻¹; with soluble human BLyS [5] it was 678000 M⁻¹ s⁻¹. Moreover, the “IC50 mBLyS stimulated, mouse splenic B-cell proliferation” value with soluble mouse BLyS [15] was not above 1 ng/mL. Also, in the test with soluble human BLyS [7], the “IC50 hBLyS stimulated” value is not above 1 ng/mL.

As to B5, the IC50 with soluble cynomolgus BLyS is 0.08 nM; with soluble human BLyS [18], 0.43 nM; in the test with soluble human BLyS [6], 0.0526 nM; with soluble human BLyS [9], less than 0.0003 nM; with soluble human BLyS [10] it was 0.0018 nM; in the test with soluble human BLyS [21], 0.1 nM. For the same molecule, the IC50 with soluble mouse BLyS [16] was less than 0.0003 nM; in the test with soluble mouse BLyS [17], 0.0013 nM; in the test with soluble mouse BLyS [8], 0.107 nM; with soluble mouse BLyS [22], 0.16 nM. The binding result in the test with mouse APRIL [11] and with human APRIL [12] was “no binding (tested: 50 nM)” throughout. Also, the Kd with soluble mouse BLyS [13] was determined as 0.062 nM; with soluble human BLyS [14], 0.224 nM; with soluble mouse BLyS [19], 0.0145 nM; with soluble human BLyS [20] it was 0.4 nM. The koff with soluble mouse BLyS [13] and in the test with soluble human BLyS [14] was 4.2e-05 s⁻¹ each time. Besides, the kon in the test with soluble mouse BLyS [13] turned out to be 670000 M⁻¹ s⁻¹; with soluble human BLyS [14], 190000 M⁻¹ s⁻¹. Also, the “IC50 mBLyS stimulated, mouse splenic B-cell proliferation” value with soluble mouse BLyS [15] stood at 3 ng/mL. For the same molecule, in the test with soluble human BLyS [7], the “IC50 hBLyS stimulated” value was determined as 4 ng/mL.

As for B6, the IC50 in the test with soluble cynomolgus BLyS is 0.11 nM; with soluble human BLyS [23] it was 2.87 nM.
